Test [1] has as its target CAL PDZ domain (CALP5-His) (UniProt Q9HD26). In words: FP competition, condition B: probe FAM-…-OH (100 nM) with 500 nM CALP5-His; competitor titrated.
Test [2] has the same target. As to the kind of experiment: FP competition, condition A: probe peptide 26 (50 nM) with 100 nM CALP5-His; competitor titrated.
The target is the same in test [3]. As to the kind of experiment: direct FP, condition C: 50 nM labeled peptide, CALP5-His titrated.
Test [4] has the same target. As to the kind of experiment: FP competition.
Test [5] shares this target. As to the kind of experiment: direct FP: 50 nM FITC-labeled peptide, PDZ domain titrated.
Test [6] shares this target. In words: direct FP, ratio of KD values.
Another test addresses NHERF1-PDZ1 domain (UniProt O14745). In words: direct FP: 50 nM FITC-labeled peptide, PDZ domain titrated.
The target in another test is NHERF2-PDZ2 domain (UniProt Q15599). The test is described as above.
The target of the next test is NHERF2-PDZ1 domain (UniProt Q15599). The test is described as above.
Test [7] has as its target CAL PDZ domain (CALP5-His) (UniProt Q9HD26). As to the kind of experiment: direct FP of FITC-labeled peptides.

The term IC50 denotes the concentration that gives 50% inhibition. Read a high IC50 as lower potency. The Kd is the concentration at which binding is half-saturated.

Bounds are passed on as bounds.

NHERF2-PDZ2 domain, sequence (Q15599 150-230 limits assumed): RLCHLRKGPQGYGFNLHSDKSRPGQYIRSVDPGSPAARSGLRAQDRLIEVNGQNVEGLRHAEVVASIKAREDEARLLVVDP
NHERF1-PDZ1 domain, sequence (O14745 14-94 limits assumed): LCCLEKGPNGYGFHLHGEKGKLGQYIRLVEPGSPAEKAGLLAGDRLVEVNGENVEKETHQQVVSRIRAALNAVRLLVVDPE
NHERF2-PDZ1 domain, sequence (Q15599 11-90 limits assumed): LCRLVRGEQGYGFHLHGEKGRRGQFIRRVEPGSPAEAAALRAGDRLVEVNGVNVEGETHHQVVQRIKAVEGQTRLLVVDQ

Regarding “peptide 20: Ac-Cys-(D-Arg)-Arg-Arg-(2-Nal)-Trp-Gln-Pen-Thr-Arg-Tle-OH”, in test [1], the IC50 was 165 nM.

As for “peptide 21: Ac-Cys-(D-Arg)-(D-Arg)-Arg-(2-Nal)-Trp-Gln-Pen-Thr-Arg-Tle-OH”, the IC50 in test [1] is 270 nM.

Substance “peptide 22: Ac-Cys-Arg-(D-Arg)-Arg-(2-Nal)-Trp-Gln-Pen-Thr-Arg-Tle-OH” had an IC50 in [2] of 401 nM.

Regarding “peptide 23: FAM-miniPEG-Cys-(D-Arg)-Arg-Arg-(2-Nal)-Trp-Pro-Pen-Thr-Arg-Tle-OH”, in [3], the dissociation constant (Kd) was found to be 168 nM.

Regarding “peptide 24: Ac-Cys-(D-Arg)-Arg-Arg-(2-Nal)-Trp-Pen-Tle-Thr-Arg-Tle-OH”, the fold decrease in CAL binding (vs parent, printed as peptide 22) in test [4] turned out to be 2 fold. Moreover, the IC50 in [1] amounted to 380 nM.

Regarding “peptide 25: Ac-Cys-(D-Arg)-Arg-Arg-(2-Nal)-(Bta)-Pen-Tle-Thr-Arg-Tle-OH”, the fold more potent than peptide 24 in CAL binding in test [4] was 1.5 fold. This substance also returned an IC50 in test [1] of 235 nM.

As to “peptide 26: FAM-miniPEG-Cys-(D-Arg)-Arg-Arg-(2-Nal)-(Bta)-Pen-Tle-Thr-Arg-Tle-OH”, the Kd in [3] came out at 49 nM.

Consider “peptide 27-FITC: FITC-miniPEG-Cys-(D-Arg)-Arg-Arg-Nal-Trp-Pro-Pen-Thr-Arg-Tle-OH”, for which the Kd in test [5] came to 179 nM.

In [5], “peptide 28-FITC: FITC-miniPEG-Cys-(D-Arg)-Arg-Arg-Nal-Bta-Pro-Pen-Thr-Arg-Tle-OH” showed a Kd of 87 nM.

Regarding “peptide 29-FITC: FITC-miniPEG-Cys-(D-Arg)-Arg-Arg-Nal-Bta-Pip-Pen-Thr-Arg-Tle-OH”, in test [6], the fold selectivity for CAL PDZ over NHERF1/2 PDZ domains is over 130 fold. Also, the Kd with NHERF1-PDZ1 domain turned out to be 780 nM; in test [5], 6 nM; in the test with NHERF2-PDZ2 domain, 7.48 µM; in the test with NHERF2-PDZ1 domain, 1370 nM. Further, the fold improvement of CAL PDZ-binding affinity (Pip for Pro, vs peptide 28) in [7] was 15 fold.
